Reference: publication PMC5750076 (2017)

Biological target: mTORΔN-mLST8 mTORΔN (Homo sapiens, UniProt P42345)
Assay: kinase inhibition assay

Ki: ~52 µM
B1: PRAS40 114-256 (protein)
chain: not shown
